# According to patent US20230250160A1 (HOBER BIOTECH, published 2023):
# T1: renin (human (produced in the Human Secretome …, UniProt P00797 24-406, limits assumed))
# T1 construct: also called bREN
# T1 sequence (looked up): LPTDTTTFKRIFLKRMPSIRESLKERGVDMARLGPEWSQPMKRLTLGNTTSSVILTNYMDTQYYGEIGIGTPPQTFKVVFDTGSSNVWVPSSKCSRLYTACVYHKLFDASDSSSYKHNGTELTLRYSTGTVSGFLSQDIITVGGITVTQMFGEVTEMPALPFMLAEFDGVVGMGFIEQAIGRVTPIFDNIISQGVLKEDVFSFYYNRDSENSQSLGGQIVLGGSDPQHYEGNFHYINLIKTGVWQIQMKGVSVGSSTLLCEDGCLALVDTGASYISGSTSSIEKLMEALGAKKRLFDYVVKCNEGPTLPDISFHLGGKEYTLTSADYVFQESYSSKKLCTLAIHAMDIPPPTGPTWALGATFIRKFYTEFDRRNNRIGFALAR
# B1: ADAPT variant TNFα_05 (designed binder)
# chain: LIWAKAEAVQELFMYGVSDFYYDLIIKAKTVEGVEALKLHILAALP
# notes: Single domain of about 6 kDa, made in E. coli, purified on HSA resin
# Molecular target: T2, Human Serum Albumin (human, UniProt P02768 25-609)
# T2 construct: also called HSA
# Test: SPR Biacore T200, HSA on CM5 chip, ADAPT injected, 1:1 fit
# Procedure: (§1) Sensor-based binding analysis was performed using a Biacore T200 system (GE Healthcare, Stockholm, Sweden). All analyses were conducted using CM-5 sensor chips coated with the target antigen, another irrelevant antigen and HSA. One surface was left as reference. Binding analysis was performed in PBS-T at 25° C. The ADAPT variants were diluted in PBS-T to 500 nM, 250 nM, 125 nM, 62.5 nM and 31.25 nM. The samples were injected at a flow rate of 30 ul/min for 120 s followed by injection of PBS-T for 240 s to monitor the dissociation. Surfaces were regenerated with 10 mM HCl. Kinetic parameters were determined using the Biacore Insight Evaluation software, assuming a 1:1 binding.
# T2 sequence (P02768 25-609 limits assumed): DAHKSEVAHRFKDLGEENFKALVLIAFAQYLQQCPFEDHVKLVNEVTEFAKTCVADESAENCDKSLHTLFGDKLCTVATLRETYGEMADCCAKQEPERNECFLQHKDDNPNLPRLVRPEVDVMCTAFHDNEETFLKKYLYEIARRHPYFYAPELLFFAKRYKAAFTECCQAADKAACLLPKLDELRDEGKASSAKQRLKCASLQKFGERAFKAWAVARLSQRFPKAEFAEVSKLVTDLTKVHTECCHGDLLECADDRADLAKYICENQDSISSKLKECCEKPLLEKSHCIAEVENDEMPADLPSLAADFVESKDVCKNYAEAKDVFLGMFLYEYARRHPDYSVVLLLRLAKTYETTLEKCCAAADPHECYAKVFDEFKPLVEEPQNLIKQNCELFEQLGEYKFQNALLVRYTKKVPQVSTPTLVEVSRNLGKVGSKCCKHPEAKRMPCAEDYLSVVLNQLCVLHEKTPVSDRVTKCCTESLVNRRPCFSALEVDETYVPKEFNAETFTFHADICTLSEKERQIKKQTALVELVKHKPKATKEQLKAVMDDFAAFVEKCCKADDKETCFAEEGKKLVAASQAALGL
Kd,koff,kon,Binder
18 nM,0.00039 s⁻¹,21000 M⁻¹ s⁻¹,B1
2.8 nM,6.8e-05 s⁻¹,25000 M⁻¹ s⁻¹,LHEAKDWADYELWSYGVSDFYRALIWKAKTVEGVEALKLHILAALP (designed binder) [ADAPT variant ANG_13]
23 nM,0.00027 s⁻¹,12000 M⁻¹ s⁻¹,LYHAKWMASLELAKYGVSDFYWNLISKAKTVEGVEALKLHILAALP (designed binder) [ADAPT variant REN_01]
1 nM,3e-05 s⁻¹,29000 M⁻¹ s⁻¹,LYVAKDNADWELWQYGVSDFYRSLIWKAKTVEGVEALKLHILAALP (designed binder) [ADAPT variant ANG_16]
1.1 nM,2.6e-05 s⁻¹,24000 M⁻¹ s⁻¹,"LWAAKDDADWELWQYGVSDFYRALIWKAKTVEGVEALKLHILAALP (designed binder, also called ANG_6) [ADAPT variant ANG_06]"
2 nM,4.5e-05 s⁻¹,23000 M⁻¹ s⁻¹,"LYWAKDYADYELWQYGVSDFYRSLIWKAKTVEGVEALKLHILAALP (designed binder, also called ANG_2) [ADAPT variant ANG_02]"
1.1 nM,0.0012 s⁻¹,1.1e+06 M⁻¹ s⁻¹,LTVAKFWALTELQEYGVSDFYANLITKAKTVEGVEALKLHILAALP (designed binder) [ADAPT variant PSA_01]
5.5 nM,0.00064 s⁻¹,120000 M⁻¹ s⁻¹,LMWAKAEAAIELVDYGVSDFYQYLISKAKTVEGVEALKLHILAALP (designed binder) [ADAPT variant REN_40]

# Molecular target: T2, Human Serum Albumin
# Test: as above
# Remark: another data set of the same source
# Procedure: as §1
row,Kd,Binder
1,18 nM,B1
2,2.8 nM,LHEAKDWADYELWSYGVSDFYRALIWKAKTVEGVEALKLHILAALP (designed binder) [ADAPT variant ANG_13]
3,23 nM,LYHAKWMASLELAKYGVSDFYWNLISKAKTVEGVEALKLHILAALP (designed binder) [ADAPT variant REN_01]
4,1 nM,LYVAKDNADWELWQYGVSDFYRSLIWKAKTVEGVEALKLHILAALP (designed binder) [ADAPT variant ANG_16]
5,1.1 nM,"LWAAKDDADWELWQYGVSDFYRALIWKAKTVEGVEALKLHILAALP (designed binder, also called ANG_6) [ADAPT variant ANG_06]"
6,2 nM,"LYWAKDYADYELWQYGVSDFYRSLIWKAKTVEGVEALKLHILAALP (designed binder, also called ANG_2) [ADAPT variant ANG_02]"
7,1.1 nM,LTVAKFWALTELQEYGVSDFYANLITKAKTVEGVEALKLHILAALP (designed binder) [ADAPT variant PSA_01]
8,5.5 nM,LMWAKAEAAIELVDYGVSDFYQYLISKAKTVEGVEALKLHILAALP (designed binder) [ADAPT variant REN_40]

# Molecular target: T1, renin
# Test: SPR Biacore T200, target on CM5 chip, ADAPT injected, 1:1 fit
# Procedure: as §1
# (§2) Variants with sufficient alpha helical structure as well as monomeric elution profiles on the SEC column were further analyzed for binding towards their target protein as well as to HSA. The binding towards the target antigen used in the selection was measured by a multi-cycle analysis using SPR, showing that several binders had affinities in the μM-pM range. […] After target binding had been established, the variants were also evaluated for their ability to simultaneously bind to HSA. This was done either through an SPR capture assay or an experiment where the ADAPT was pre-incubated with saturating conditions of HSA before the binding towards the target was analyzed. […] In total, thirteen of the characterized binders from the selections towards TNFα, PSA, ANG, MYDGF and Insulin could bind both HSA and its target antigen simultaneously. FIG. 5 contains sensorgrams for the thirteen variants in the capture assay.
row,Kd,Binder
1,76 nM,LYHAKWMASLELAKYGVSDFYWNLISKAKTVEGVEALKLHILAALP (designed binder) [ADAPT variant REN_01]
2,410 nM,LMWAKAEAAIELVDYGVSDFYQYLISKAKTVEGVEALKLHILAALP (designed binder) [ADAPT variant REN_40]

# Molecular target: T3, tumor necrosis factor alpha (human (produced in the Human Secretome …, UniProt P01375 77-233, limits assumed))
# T3 construct: also called TNFα; bTNFα
# Test: as above
# Procedure: as §1, §2
# T3 sequence (P01375 77-233 limits assumed): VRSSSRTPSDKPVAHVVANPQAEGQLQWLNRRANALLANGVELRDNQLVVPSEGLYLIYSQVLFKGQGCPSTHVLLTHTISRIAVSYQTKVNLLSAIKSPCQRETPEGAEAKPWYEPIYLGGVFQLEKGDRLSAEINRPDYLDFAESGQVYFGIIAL
row,Binder,Kd
1,B1,2.5 nM

# Molecular target: T4, Prostate Specific Antigen (human (produced in the Human Secretome …, UniProt P07288 18-261, limits assumed))
# T4 construct: also called PSA; bPSA
# Test: as above
# Procedure: as §1, §2
# T4 sequence (P07288 18-261 limits assumed): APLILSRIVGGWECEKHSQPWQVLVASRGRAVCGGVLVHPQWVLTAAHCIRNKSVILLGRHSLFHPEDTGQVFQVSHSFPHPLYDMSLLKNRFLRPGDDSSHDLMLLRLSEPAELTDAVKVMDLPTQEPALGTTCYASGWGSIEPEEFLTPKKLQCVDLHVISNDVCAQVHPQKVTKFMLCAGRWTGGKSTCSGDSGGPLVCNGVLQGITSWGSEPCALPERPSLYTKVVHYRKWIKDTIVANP
row,Kd,Binder
1,280 nM,LTVAKFWALTELQEYGVSDFYANLITKAKTVEGVEALKLHILAALP (designed binder) [ADAPT variant PSA_01]

# Molecular target: T5, angiogenin (human (produced in the Human Secretome …, UniProt P03950 25-147))
# T5 construct: also called bANG
# Test: as above
# Procedure: as §1, §2
# T5 sequence (P03950 25-147 limits assumed): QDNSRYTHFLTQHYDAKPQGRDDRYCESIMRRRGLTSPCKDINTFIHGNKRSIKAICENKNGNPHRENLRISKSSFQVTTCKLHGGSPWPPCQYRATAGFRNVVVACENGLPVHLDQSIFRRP
row,Kd,Binder
1,0.028 nM,LHEAKDWADYELWSYGVSDFYRALIWKAKTVEGVEALKLHILAALP (designed binder) [ADAPT variant ANG_13]
2,4.9 nM,"LWAAKDDADWELWQYGVSDFYRALIWKAKTVEGVEALKLHILAALP (designed binder, also called ANG_6) [ADAPT variant ANG_06]"

# Molecular target: T1, renin
# Test: as above
# Remark: another data set of the same source
# Procedure: as §1
Kd,koff,kon,Binder
76 nM,0.0024 s⁻¹,32000 M⁻¹ s⁻¹,LYHAKWMASLELAKYGVSDFYWNLISKAKTVEGVEALKLHILAALP (designed binder) [ADAPT variant REN_01]
410 nM,0.0035 s⁻¹,8700 M⁻¹ s⁻¹,LMWAKAEAAIELVDYGVSDFYQYLISKAKTVEGVEALKLHILAALP (designed binder) [ADAPT variant REN_40]

# Molecular target: T3, tumor necrosis factor alpha
# Test: as above
# Remark: another data set of the same source
# Procedure: as §1
Binder,Kd,koff,kon
B1,2.5 nM,0.0037 s⁻¹,1.5e+06 M⁻¹ s⁻¹

# Molecular target: T4, Prostate Specific Antigen
# Test: as above
# Remark: another data set of the same source
# Procedure: as §1
Kd,koff,kon,Binder
280 nM,0.1 s⁻¹,360000 M⁻¹ s⁻¹,LTVAKFWALTELQEYGVSDFYANLITKAKTVEGVEALKLHILAALP (designed binder) [ADAPT variant PSA_01]

# Molecular target: T5, angiogenin
# Test: as above
# Remark: another data set of the same source
# Procedure: as §1
Kd,koff,kon,Binder
0.028 nM,2.9e-06 s⁻¹,110000 M⁻¹ s⁻¹,LHEAKDWADYELWSYGVSDFYRALIWKAKTVEGVEALKLHILAALP (designed binder) [ADAPT variant ANG_13]
5.1 nM,0.0005 s⁻¹,99000 M⁻¹ s⁻¹,LYVAKDNADWELWQYGVSDFYRSLIWKAKTVEGVEALKLHILAALP (designed binder) [ADAPT variant ANG_16]
4.9 nM,0.00032 s⁻¹,65000 M⁻¹ s⁻¹,"LWAAKDDADWELWQYGVSDFYRALIWKAKTVEGVEALKLHILAALP (designed binder, also called ANG_6) [ADAPT variant ANG_06]"
14 nM,0.0007 s⁻¹,52000 M⁻¹ s⁻¹,"LYWAKDYADYELWQYGVSDFYRSLIWKAKTVEGVEALKLHILAALP (designed binder, also called ANG_2) [ADAPT variant ANG_02]"
